From patent US20210277109A1 (SYSTIMMUNE, published 2021)
Each block holds one binder with its values, some of them ahead of it.

What was measured:
[1] = molecular target: T1, human ROR1 'Frizzled-Kringle domain' (human, UniProt Q01973); experiment: Octet
T1 construct: used plain or biotinylated

Human ROR2 [2] = molecular target: T2, Human ROR2 (human, UniProt Q01974); experiment: Octet
[3] = molecular target: T3, mouse ROR1 (serum titer ELISA antigen) (mouse, UniProt Q9Z139 30-403, limits assumed); experiment: Octet
Mouse ROR1-CHO = molecular target: T4, Mouse ROR1-CHO (mouse, UniProt Q9Z139); experiment: FACS, mouse ROR1-CHO
T4 construct: expressed on the surface of CHO cells; also called mouse ROR1 on CHO cells

[4] = molecular target: T5, recombinant human ROR1 extracellular domain protein (human, UniProt Q01973 30-406); experiment: Octet, mono-valent binding to human ROR1
T5 construct: extracellular domain; Analyte in solution in the Octet assay; also called human ROR1 ECD
From the text: The heavy and light chain expression plasmids generated from each well were transiently co-transfected to produce rabbit/human chimeric antibodies. Recombinant antibody supernatants were confirmed to contain anti-ROR1 antibodies using bio-layer interferometry analysis on a ForteBio Octet Red 96 instrument. Anti-human Fc biosensors (Pall ForteBio) were used to capture antibodies in the supernatants. Association to ROR1 was observed by real-time interferometry by placing the biosensors in wells containing recombinant human ROR1 extracellular domain protein. Dissociation was measured after transfer of the biosensors into wells containing 10× kinetics buffer (Pall ForteBio). The software provided by the manufacturer was used to analyze the interferometry data.

[5] = molecular target: T6, human ROR1 'Kringle domain' (human, UniProt Q01973, biotinylated); experiment: ELISA, biotinylated antigen on avidin plate; BCC supernatant
T6 construct: also called biotinylated human ROR1 Kringle domain

Human ROR2 [6] = molecular target: T2, Human ROR2; experiment: ELISA, direct coat; BCC supernatant
[7] = molecular target: T5, recombinant human ROR1 extracellular …; experiment: Octet, bi-valent binding to human ROR1
[8] = molecular target: Human ROR1-CHO cells (human) (UniProt Q01973); experiment: FACS; BCC supernatant
[9] = molecular target: T1, human ROR1 'Frizzled-Kringle domain'; experiment: ELISA, biotinylated antigen on avidin plate; BCC supernatant
[10] = molecular target: T7, human ROR1 'Ig-Frizzled domain' (human, UniProt Q01973); experiment: as above
T7 construct: used plain or biotinylated

[11] = molecular target: T1, human ROR1 'Frizzled-Kringle domain'; experiment: ELISA, direct coat; BCC supernatant
[12] = molecular target: T3, mouse ROR1 (serum titer ELISA antigen); experiment: ELISA, direct coat; BCC supernatant
[13] = molecular target: T7, human ROR1 'Ig-Frizzled domain'; experiment: ELISA, direct coat; BCC supernatant
[14] = molecular target: recombinant human ROR1 extracellular domain protein (human) (UniProt Q01973); experiment: ELISA, direct coat; BCC supernatant
Human ROR2 (human) = Human ROR2 (human) (UniProt Q01974); experiment: ELISA, direct coat; BCC supernatant
[15] = molecular target: T5, recombinant human ROR1 extracellular …; experiment: ELISA, direct coat; BCC supernatant
[16] = molecular target: T7, human ROR1 'Ig-Frizzled domain'; experiment: Octet

T1 sequence (Q01973 165-406 limits assumed): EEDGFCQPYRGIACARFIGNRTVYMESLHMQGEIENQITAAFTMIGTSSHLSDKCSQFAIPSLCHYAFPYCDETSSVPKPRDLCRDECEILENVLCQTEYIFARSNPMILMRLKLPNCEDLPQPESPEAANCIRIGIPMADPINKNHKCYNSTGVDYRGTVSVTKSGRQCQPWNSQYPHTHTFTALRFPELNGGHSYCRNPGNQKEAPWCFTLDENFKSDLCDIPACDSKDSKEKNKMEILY
T3 sequence (Q9Z139 30-403 limits assumed): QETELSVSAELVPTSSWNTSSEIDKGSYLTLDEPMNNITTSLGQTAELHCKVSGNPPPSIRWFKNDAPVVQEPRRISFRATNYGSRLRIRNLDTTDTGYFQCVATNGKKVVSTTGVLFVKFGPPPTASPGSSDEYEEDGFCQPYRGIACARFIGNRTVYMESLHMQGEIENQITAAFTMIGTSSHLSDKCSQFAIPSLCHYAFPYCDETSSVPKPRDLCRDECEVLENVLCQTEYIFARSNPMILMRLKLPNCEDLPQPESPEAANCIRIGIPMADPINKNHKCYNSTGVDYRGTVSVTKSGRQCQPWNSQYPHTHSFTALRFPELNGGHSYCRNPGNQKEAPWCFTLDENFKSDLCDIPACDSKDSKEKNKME
T2 sequence (Q01974 34-403 limits assumed): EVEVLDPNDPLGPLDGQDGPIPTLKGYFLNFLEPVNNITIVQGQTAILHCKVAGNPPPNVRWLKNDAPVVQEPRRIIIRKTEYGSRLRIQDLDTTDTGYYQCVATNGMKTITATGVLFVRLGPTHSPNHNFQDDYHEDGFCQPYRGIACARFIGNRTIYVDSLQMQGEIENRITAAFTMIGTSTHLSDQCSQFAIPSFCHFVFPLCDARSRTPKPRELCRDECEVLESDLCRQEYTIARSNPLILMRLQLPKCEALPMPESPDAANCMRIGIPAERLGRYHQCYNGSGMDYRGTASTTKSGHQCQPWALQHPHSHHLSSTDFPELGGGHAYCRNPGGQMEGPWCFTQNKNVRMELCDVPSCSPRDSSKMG
T5 sequence (Q01973 30-406): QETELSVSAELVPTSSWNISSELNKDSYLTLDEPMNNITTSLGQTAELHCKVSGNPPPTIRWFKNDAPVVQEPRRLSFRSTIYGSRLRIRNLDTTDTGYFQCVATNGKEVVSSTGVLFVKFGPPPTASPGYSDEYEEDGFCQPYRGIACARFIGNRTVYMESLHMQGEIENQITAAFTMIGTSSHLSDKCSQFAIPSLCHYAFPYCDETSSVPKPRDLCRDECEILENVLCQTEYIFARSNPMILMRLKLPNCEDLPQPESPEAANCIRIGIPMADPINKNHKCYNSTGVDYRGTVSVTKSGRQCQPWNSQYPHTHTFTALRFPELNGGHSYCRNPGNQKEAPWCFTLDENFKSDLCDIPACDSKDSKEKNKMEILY
T7 sequence (Q01973 30-305 limits assumed): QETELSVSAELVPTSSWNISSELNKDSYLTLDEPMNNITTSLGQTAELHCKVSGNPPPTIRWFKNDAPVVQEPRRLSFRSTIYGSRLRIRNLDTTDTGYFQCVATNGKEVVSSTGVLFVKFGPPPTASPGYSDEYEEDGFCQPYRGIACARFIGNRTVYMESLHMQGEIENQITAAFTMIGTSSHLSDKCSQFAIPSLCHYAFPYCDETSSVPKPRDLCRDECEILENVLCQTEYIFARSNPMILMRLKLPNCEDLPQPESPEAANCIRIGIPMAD
Sequence of Human ROR2 (human) (Q01974 34-403 limits assumed): as the sequence (Q01974 34-403 limits assumed) above
Sequence of Human ROR1-CHO cells (human) (Q01973 30-937 limits assumed): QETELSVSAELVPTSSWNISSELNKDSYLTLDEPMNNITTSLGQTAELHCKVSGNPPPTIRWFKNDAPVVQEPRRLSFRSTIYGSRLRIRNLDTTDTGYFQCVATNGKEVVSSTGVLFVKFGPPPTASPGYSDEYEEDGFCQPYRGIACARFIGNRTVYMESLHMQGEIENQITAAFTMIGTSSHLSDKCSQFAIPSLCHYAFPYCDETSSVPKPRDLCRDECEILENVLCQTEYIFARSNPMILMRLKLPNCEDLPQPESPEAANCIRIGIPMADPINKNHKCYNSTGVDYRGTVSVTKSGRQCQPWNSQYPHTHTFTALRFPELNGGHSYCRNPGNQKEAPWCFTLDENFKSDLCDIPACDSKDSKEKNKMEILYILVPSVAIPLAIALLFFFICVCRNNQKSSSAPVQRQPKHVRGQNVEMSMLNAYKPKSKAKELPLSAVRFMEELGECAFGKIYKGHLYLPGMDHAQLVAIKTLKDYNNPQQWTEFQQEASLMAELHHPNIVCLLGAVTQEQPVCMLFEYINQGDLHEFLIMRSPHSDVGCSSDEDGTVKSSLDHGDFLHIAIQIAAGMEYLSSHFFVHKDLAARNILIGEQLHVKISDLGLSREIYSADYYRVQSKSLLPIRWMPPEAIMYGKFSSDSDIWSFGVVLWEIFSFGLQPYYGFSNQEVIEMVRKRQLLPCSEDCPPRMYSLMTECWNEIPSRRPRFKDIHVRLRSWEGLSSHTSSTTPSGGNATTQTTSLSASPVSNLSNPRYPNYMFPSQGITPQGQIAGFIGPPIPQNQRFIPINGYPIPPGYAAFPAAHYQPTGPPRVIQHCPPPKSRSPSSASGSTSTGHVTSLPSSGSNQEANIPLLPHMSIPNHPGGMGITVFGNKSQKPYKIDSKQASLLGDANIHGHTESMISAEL
T4 sequence (Q9Z139 30-937 limits assumed): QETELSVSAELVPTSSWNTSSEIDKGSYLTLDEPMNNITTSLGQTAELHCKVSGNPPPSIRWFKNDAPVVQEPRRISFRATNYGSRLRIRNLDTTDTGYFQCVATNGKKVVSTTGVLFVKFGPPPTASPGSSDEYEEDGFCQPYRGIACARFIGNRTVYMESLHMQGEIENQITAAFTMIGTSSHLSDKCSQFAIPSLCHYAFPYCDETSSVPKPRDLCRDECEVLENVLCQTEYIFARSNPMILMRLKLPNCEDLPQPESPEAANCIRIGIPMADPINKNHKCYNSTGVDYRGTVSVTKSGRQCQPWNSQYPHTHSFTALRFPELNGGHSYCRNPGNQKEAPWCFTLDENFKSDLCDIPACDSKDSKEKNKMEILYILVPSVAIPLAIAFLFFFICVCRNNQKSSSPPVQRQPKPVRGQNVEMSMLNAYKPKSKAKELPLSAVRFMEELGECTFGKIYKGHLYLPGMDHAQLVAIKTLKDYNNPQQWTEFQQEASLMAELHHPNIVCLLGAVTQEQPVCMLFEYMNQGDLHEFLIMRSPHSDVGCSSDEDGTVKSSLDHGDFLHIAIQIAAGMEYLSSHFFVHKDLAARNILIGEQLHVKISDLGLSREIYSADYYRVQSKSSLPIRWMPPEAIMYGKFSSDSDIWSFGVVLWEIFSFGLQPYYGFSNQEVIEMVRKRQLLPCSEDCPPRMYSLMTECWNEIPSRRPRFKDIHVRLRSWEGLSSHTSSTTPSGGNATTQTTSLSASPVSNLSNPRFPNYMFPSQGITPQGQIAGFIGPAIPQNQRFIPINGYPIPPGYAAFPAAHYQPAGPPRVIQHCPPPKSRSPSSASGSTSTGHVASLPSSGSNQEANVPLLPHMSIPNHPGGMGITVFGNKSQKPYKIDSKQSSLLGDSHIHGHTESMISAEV
T6 sequence (Q01973 308-395 limits assumed): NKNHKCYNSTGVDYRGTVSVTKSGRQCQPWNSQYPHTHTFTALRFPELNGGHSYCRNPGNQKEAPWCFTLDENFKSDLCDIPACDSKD
Sequence of recombinant human ROR1 extracellular domain protein (human) (Q01973 30-406): as the sequence (Q01973 30-406) above

B2: 226E12 (antibody, V domains shown)
VH: QSLEESGGRLVTPGTPLTLTCTASEFSLSNYYMSWVRQAPGEGLEWIGAINADSDNTWYPSWVKGRFTISKTSSTTVDLKITSPTIEDTATYFCARSVSNNFAEYNIWGPGTLVTVSS
VL: AYDMTQTPSSVSAAVGGTVTIKCQASQRIYSYLAWYQQKPGQPPKLLIYRASTLASGVPSRFKGSGSGTEYTLTISDLECADAATYYCQQGASMVDVENMFGGGTEVVVK
notes: chimeric counterpart m2; also called rabbit IgG of BCC well 226E12
ELISA OD450 [5]: 0.41 OD450 | ELISA OD450 (Human ROR2 [6]): 0.09 OD450

B3: 323H7 chimeric rabbit/human IgG antibody (antibody, V domains shown)
VH: QEQLKESGGGLVTPGGTLTLTCTASGFTISRYHMTWVRQAPGKGLEWIGHIYVNNDDTDYASWAKGRFTISKTSTTVDLKITSPTTEDTATYFCARLDVGGGGAYIGDIWGQGTLVTVSS
VL: QAVVTQTPSSVSAAVGGTVTISCQSSQSVYNNNDLAWYQQKPGQPPKLLIYYASTLASGVSSRFKGSGSGTQFTLAISDLECDDSATYYCAGGYDTDGLDTFAFGGGTEVEVKR
notes: Rabbit variable regions on human gamma-1 and human kappa constant domains
koff [7]: 0.0062 s⁻¹ | binding result [1]: no binding | binding result (Human ROR2 [2]): no binding | binding result [3]: no binding | binding result (Mouse ROR1-CHO): no binding | koff [4]: 2.08e-08 s⁻¹

B4: 324E2 (antibody, V domains shown)
VH: QSVEESGGRLVTPGTPLTLTCTVSGFSLSNNAITWVRQAPGKGLEYIGIISSSGTTYYASWAKGRFTISKTSSTTVDLKMTSLTTEDTATYFCAGAFSVWGPGTLVTVSS
VL: AQVLTQTPSSVSAAVGGTVTINCQSSQSVNNNDLAWFQQKPGQPPKRLIYWASKLASGVPSRFKGSGSGTQFILTISDLECDDAATYYCAGGYSGNIYGFGGGTEVEVK
notes: chimeric counterpart m6; also called rabbit IgG of BCC well 324E2
FACS MFI [8]: 25 MFI | ELISA OD450 [9]: 0.1 OD450 | ELISA OD450 [10]: 0.62 OD450 | ELISA OD450 [11]: 0.18 OD450 | ELISA OD450 [12]: 2.17 OD450 | ELISA OD450 [13]: 1.29 OD450 | ELISA OD450 [14]: 0.48 OD450 | ELISA OD450 (Human ROR2 (human)): 0.21 OD450

B5: 323D10 (antibody, V domains shown)
VH: QSVEESGGRLVTPGTPLTLTCTVSGFSLSRNAMNWVRQAPGKGLEYIGYISTSGTTFYANWVKGRFTISKTSTTVDLKMTSLTTEDTATYFCARDYNYAMDIWGQGTLVTVSS
VL: AIDLTQTPASVEAAVGGTITINCQASESISSWLAWYQQKPGQRPKLLIYETSKLASGVPPRFSGSGSGTQFTLTISGVQCDDAATYYCQSYYRINNIGYDNAFGGGTEVEFK
notes: chimeric counterpart m5; also called rabbit IgG of BCC well 323D10
FACS MFI [8]: 20 MFI | ELISA OD450 [9]: 0.17 OD450 | ELISA OD450 [10]: 2.23 OD450 | ELISA OD450 [11]: 0.32 OD450 | ELISA OD450 [12]: 4 OD450 | ELISA OD450 [15]: 2.32 OD450 | ELISA OD450 [13]: 1.94 OD450 | ELISA OD450 (Human ROR2 (human)): 0.23 OD450

Results, then the binder that gave them:

binding result [1]: no binding | binding result (Human ROR2 [2]): no binding | binding result [3]: no binding | binding result (Mouse ROR1-CHO): no binding | koff [4]: 1.35e-08 s⁻¹
B1: 324C7 chimeric rabbit/human IgG antibody (antibody, V domains shown)
VH: QSVEESGGRLVTPGTPLTLTCTVSGFSLSGAGVSWVRQAPGKGLEWIGYIDSGATTYYASWAKGRFTISKASTTVDLKIASPTTEDTATYFCARGYYGMDPWGQGTLVTVSS
VL: DIVMTQTPASVEVAVGGTVTIKCQASQNIGSDLAWYQQKPGQPPKLLIYTTSNLASGVPSRFKGSGSGTGFTLTISDLECADAASYCCQGGYFSGRNIYGNAFGGGTEVVVKR
notes: as for B3

binding result (Human ROR2 [2]): no binding | binding result [16]: no binding | koff [4]: 1.26e-08 s⁻¹
B6: 330F11 chimeric rabbit/human IgG antibody (antibody, V domains shown)
VH: QSVEESGGRLVTPGTPLTLTCTVSGFSLNNYWMSWVRQAPGEGLEWIGTISSGAYTWFATWATGRFTISKTSTTVDLSITSPTTEDTATYFCARYSSTTDWTYFNIWGPGTLVTVSS
VL: DVVMTQTPASVEAAVGGTVTIKCQASQSINNYLAWYQQKPGQPPKLLIYRASTLESGVPSRFKGSGSGTQFTLTISDLECADAATYYCQSYNGVGRTAFGGGTEVEFKR
notes: as for B3
